# Experimental data published in patent US20140162952A1 (ONCOTHERAPY SCIENCE, published 2014).
# Where a chain is given by its changes, count along the chain named. Names and notes keep the numbering of the source. Where no end group is shown, it is not given here.
# B1: scrPeptide (peptide)
# peptide: DRQLQLSTLQRML
# modifications: also: FITC tag, position not given here
# notes: also called FITC-tagged ERAP1-scramble peptide
# B2: ERAP1 mutant (alanine mutant of Q165, D169 and Q173) (other)
# chain: MEEILRKLQKEASGSKYKAIKESCTWALETLGGLDTIVKIPPHVLREKCLLPLQLALESKNVKLAQHALAGMQKLLSEERFVSMETDSDEKQLLNQILNAVKVTPSLNEDLQVEVMKVLLCITYTPTFDLNGSAVLKIAEVCIETYISSCHQRSINTAVRATLSAMLSALTLALRQRQENTIIENPDVPQDFGNQGSTVESLCDDVVSVLTVLCEKLQAAINDSQQLQLLYLECILSVLSSSSSSMHLHRRFTDLIWKNLCPALIVILGNPIHDKTITSAHTSSTSTSLESDSASPGVSDHGRGSGCSCTAPALSGPVARTIYYIAAELVRLVGSVDSMKPVLQSLYHRVLLYPPPQHRVEAIKIMKEILGSPQRLCDLAGPSSTESESRKRSISKRKSHLDLLKLIMDGMTEACIKGGIEACYAAVSCVCTLL
# notes: not shown: Flag tag
# B3: Q173A (other)
# single chain: B2 chain with A165Q, A169D
# notes: Construct named in the text, but absent from the list MOLECULES; its band ratios stand only on the sheet; also called alanine mutant of Q173 (Q173A)
# B4: HA-tagged ERAP1-peptide (peptide)
# peptide: RRRRRRRRRRRQMLSDLTLQLRQR
# notes: ERAP1-peptide to which an HA tag was added; also called ERAP1-HA-peptide; HA tag-added peptide; not shown: HA tag
# B5: Scramble (HA-Peptide) (peptide)
# single chain: DRQLQLSTLQRML
# notes: it is detected in the Peptide blot, so it carries the tag; also called HA-tagged ERAP1-scramble peptide
# Key:
# [1] = target: T1, 6×His-tagged recombinant PHB2/REA protein (human, UniProt Q99623 77-244); experiment: fluorescence correlation spectroscopy, 10 nM FITC-tagged ERAP1-scramble peptide with rising 6xHis-PHB2/REA
# T1 construct: Expressed in Escherichia coli BL21 star (DE3); also called His-PHB2/REA; 6×His-PHB2/REA; not shown: hexahistidine tag, thioredoxin (TrxA) and TEV protease cut site at the amino terminal (pTAT6 vector)
# T1 sequence (Q99623 77-244): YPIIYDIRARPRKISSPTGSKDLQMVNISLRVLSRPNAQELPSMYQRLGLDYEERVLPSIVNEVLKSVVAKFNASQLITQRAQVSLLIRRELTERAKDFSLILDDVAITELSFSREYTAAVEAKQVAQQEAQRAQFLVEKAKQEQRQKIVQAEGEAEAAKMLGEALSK
# [2] = target: T2, HA-PHB2 (HA-tagged PHB2 construct) (human, UniProt Q99623 1-299, limits assumed); experiment: COS-7 co-transfection with the PHB2/REA construct, IP and immunoblot
# T2 construct: Expressed by transfection in COS-7 or HEK293T cells; also called PHB2/REA construct; HA-tagged PHB2/REA (WT); not shown: HA tag
# T2 sequence (Q99623 whole entry): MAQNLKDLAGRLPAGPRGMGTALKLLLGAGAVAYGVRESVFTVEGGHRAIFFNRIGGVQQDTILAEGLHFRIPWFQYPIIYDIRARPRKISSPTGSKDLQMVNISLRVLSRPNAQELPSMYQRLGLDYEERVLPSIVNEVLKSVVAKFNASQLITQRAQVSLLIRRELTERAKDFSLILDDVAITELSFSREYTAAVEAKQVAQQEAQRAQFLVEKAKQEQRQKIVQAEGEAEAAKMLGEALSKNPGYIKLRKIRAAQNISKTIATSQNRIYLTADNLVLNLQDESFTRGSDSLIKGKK
# [3] = target: T2, HA-PHB2 (HA-tagged PHB2 construct); experiment: co-immunoprecipitation from COS-7 cells, IP anti-FLAG and IP anti-HA
# [4] = target: T2, HA-PHB2 (HA-tagged PHB2 construct); experiment: co-immunoprecipitation from COS-7 cells, IP anti-FLAG, blot anti-HA
# [5] = target: T2, HA-PHB2 (HA-tagged PHB2 construct); experiment: co-immunoprecipitation from COS-7 cells, IP anti-HA, blot anti-FLAG
# [6] = target: T1, 6×His-tagged recombinant PHB2/REA …; experiment: Biacore 3000, 6×His-tagged recombinant PHB2/REA immobilized on a CM5 chip, peptide injected; Biacore; His-PHB2/REA on the chip, HA-tagged peptide injected
# [7] = target: T3, inherent ERAP1 (Estrogen Receptor Activity-regulated Protein 1) (human, UniProt Q5TH69 1-2177); experiment: co-IP from cytoplasm and nuclear fractions of KPL-3C cells, 24 h, 10 nM E2 and/or 10 µM HA-tagged ERAP1-peptide; blot anti-HA
# T3 construct: Endogenous protein immunoprecipitated from cell lysates; also called ERAP1 polypeptide; BIG3
# [8] = target: T1, 6×His-tagged recombinant PHB2/REA …; experiment: fluorescence correlation spectroscopy, 10 nM FITC-tagged ERAP1-peptide with rising 6xHis-PHB2/REA; same constant as the 14.4 µM of the text, in mass units
# [9] = target: T1, 6×His-tagged recombinant PHB2/REA …; experiment: fluorescence correlation spectroscopy, 10 nM FITC-tagged peptide with His-PHB2/REA at various concentrations; fluorescence correlation spectroscopy; 10 nM FITC-tagged peptide in solution
# [10] = target: T1, 6×His-tagged recombinant PHB2/REA …; experiment: Ni-resin pull-down of 10 µg His-PHB2 mixed with lysate of Flag-tagged ERAP1 expressing cells and HA-peptide; blot for Peptide
binder,measurement,setting,value
B1,binding result,[1],no binding (tested: about 1.25 mg/mL)
B2,"coprecipitation band, ratio when that with ERAP1 (1-434 aa) is designated as 100",[2],2%
same,binding result,[3],no binding
same,ratio of the coprecipitated band (ERAP1 1-434 = 100),[4],1
B3,ratio of the coprecipitated band (ERAP1 1-434 = 100),[5],52
same,ratio of the coprecipitated band (ERAP1 1-434 = 100),[4],79
B4,Kd,[6],18.9 µM
same,binding result,[7],no binding (tested: 10 µM)
"RRRRRRRRRRRQMLSDLTLQLRQR (also: FITC tag, position not given here) [FITC-tagged ERAP1-peptide]",Kd,[8],480 µg/mL
same,Kd,[9],14.4 µM
B5,binding result,[10],no binding (tested: 100 µM)
